Earlier results as cited in paper PMC3667669.
Read-outs that look alike come from different tables or passages of the source.

Key:
Cdc42 (Homo sapiens) [1] = target: Cdc42 (Homo sapiens) (UniProt P60953)
Cdc42 (Homo sapiens) [2] = target: Cdc42 (Homo sapiens) (UniProt P60953); remark: listed apart in the source

Cdc42 (Homo sapiens), sequence (P60953 1-188): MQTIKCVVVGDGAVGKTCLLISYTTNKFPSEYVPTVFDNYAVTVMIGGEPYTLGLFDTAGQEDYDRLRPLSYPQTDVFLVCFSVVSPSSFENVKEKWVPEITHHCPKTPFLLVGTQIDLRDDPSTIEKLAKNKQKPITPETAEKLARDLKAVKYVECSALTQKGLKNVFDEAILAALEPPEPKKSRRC
mero221-CBD CBD, sequence (P42768 201-321): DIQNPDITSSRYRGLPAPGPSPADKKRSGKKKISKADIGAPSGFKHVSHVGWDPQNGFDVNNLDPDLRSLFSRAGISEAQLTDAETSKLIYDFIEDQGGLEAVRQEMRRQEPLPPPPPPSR
CBD fragment CBD, sequence (P42768 201-321): as above

Substance | Kd (Cdc42 (Homo sapiens) [1]) | Kd (Cdc42 (Homo sapiens) [2])
CBD fragment CBD (from UniProt P42768) | 77 nM | –
mero221-CBD CBD (from UniProt P42768) | – | 150 nM
